This note sets out measurements from PMC4157081.

Common to all, as to assay: cryo-EM structure
For test [1], the target named is CUS-3 tailspike protein (gp9 by the name of the P22 homologue) (bacteriophage CUS-3).
The target in test [2] is CUS-3 portal protein (gp1 by the name of the P22 homologue) (bacteriophage CUS-3).
In test [3] the target is CUS-3 tail needle protein (gp26 by the name of the P22 homologue) (bacteriophage CUS-3).
Test [4] addresses CUS-3 coat protein (CP, major capsid protein; gp5 by the name of the P22 homologue) (bacteriophage CUS-3).

Several values for one entry are separate records, joined by “and”; a condition that tells them apart may be missing. Equal values may be shown once.

Usually stoichiometry N stands for the number of molecules, sites or subunits per partner or assembly. With “CUS-3 tailspike protein (gp9 by the name of the P22 homologue) (natural protein)”, the stoichiometry N in test [1] turned out to be 3.

As for “CUS-3 portal protein (gp1 by the name of the P22 homologue) (natural protein)”, the stoichiometry N in test [2] is 12.

As for “CUS-3 tail needle protein (gp26 by the name of the P22 homologue) (natural protein)”, the stoichiometry N in test [3] amounted to 3.

For “CUS-3 coat protein (CP, major capsid protein; gp5 by the name of the P22 homologue) (natural protein)”, the stoichiometry N in test [4] is 5 and 6.
